From PMC4773887
pKd: −log10 of the molar value.

Key:
Experiment in all cases: EMSA
Conditions in all cases: EMSA: 10 fmol DNA, 300 uM ddGTP, 3 mM dCTP; 6% native PAGE in 0.5x TBE, 35 min, 180 V; binding buffer, salt, pH and temperature not stated (ref 59)
[1] = tested on: HsPOLγA WT;HsPOLγB WT (Homo sapiens;Homo sapiens)
[2] = tested on: HsPOLγA Q1102A (pol-);HsPOLγB WT (Homo sapiens;Homo sapiens)
[3] = tested on: HsPOLγA D274A (exo-);HsPOLγB WT (Homo sapiens;Homo sapiens)
[4] = tested on: HsPOLγA H1134A (pol-);HsPOLγB WT (Homo sapiens;Homo sapiens)

Q: With EMSA primer-template as the substance, how does the pKd [1] read?
A: 8.26

Q: And the pKd [2]?
A: 8.42

Q: What about the pKd [3] of the same substance?
A: 8.55

Q: What about the pKd [4] of the same substance?
A: 8.46
